Numbered stars: 1 amine (or outer) side, 2 acyl side, 3 side chain; on linkers, the order of the positions; unused ones are H or OH. Square brackets hold non-standard residues; d marks the D form. Side chains are listed from the residue outwards. Ends that are not written are not given here. * marks the point of attachment. C20 diacid = O=C(O)CCCCCCCCCCCCCCCCCCC(=O)*; γGlu = O=C(O)[C@H](CCC(=O)[*:2])N[*:1]; AEEA = NCCOCCOCC(=O)O; Aib = CC(C)(N)C(=O)O
Target: human GLP-1 receptor (human, UniProt P43220 24-463)
Experiment: cell-based or functional assay

| Binder | hGLPIR cAMP EC50 ratio |
| --- | --- |
| Y[Aib]EGTFTSDYSILLDKIAK([AEEA-AEEA-γGlu-C20 diacid])[Aib]AFIEYLIEGGPSSGAPPPS-NH2 (N-terminus assumed; SMILES CC[C@H](C)[C@H](NC(=O)[C@H](CCCCN)NC(=O)[C@H](CC(=O)O)NC(=O)[C@H](CC(C)C)NC(=O)[C@H](CC(C)C)NC(=O)[C@@H](NC(=O)[C@H](CO)NC(=O)[C@H](Cc1ccc(O)cc1)NC(=O)[C@H](CC(=O)O)NC(=O)[C@H](CO)NC(=O)[C@@H](NC(=O)[C@H](Cc1ccccc1)NC(=O)[C@@H](NC(=O)CNC(=O)[C@H](CCC(=O)O)NC(=O)C(C)(C)NC(=O)[C@@H](N)Cc1ccc(O)cc1)[C@@H](C)O)[C@@H](C)O)[C@@H](C)CC)C(=O)N[C@@H](C)C(=O)N[C@@H](CCCCNC(=O)COCCOCCNC(=O)COCCOCCNC(=O)CC[C@H](NC(=O)CCCCCCCCCCCCCCCCCCC(=O)O)C(=O)O)C(=O)NC(C)(C)C(=O)N[C@@H](C)C(=O)N[C@@H](Cc1ccccc1)C(=O)N[C@H](C(=O)N[C@@H](CCC(=O)O)C(=O)N[C@@H](Cc1ccc(O)cc1)C(=O)N[C@@H](CC(C)C)C(=O)N[C@H](C(=O)N[C@@H](CCC(=O)O)C(=O)NCC(=O)NCC(=O)N1CCC[C@H]1C(=O)N[C@@H](CO)C(=O)N[C@@H](CO)C(=O)NCC(=O)N[C@@H](C)C(=O)N1CCC[C@H]1C(=O)N1CCC[C@H]1C(=O)N1CCC[C@H]1C(=O)N[C@@H](CO)C(N)=O)[C@@H](C)CC)[C@@H](C)CC) [Peptide 31] | 0.0708 |
| Y[Aib]EGTFTSDYSILLDKIAQ[Aib]AFIK([AEEA-AEEA-γGlu-C20 diacid])YLIEGGPSSGAPPPS-NH2 (N-terminus assumed; SMILES CC[C@H](C)[C@H](NC(=O)[C@H](CCCCN)NC(=O)[C@H](CC(=O)O)NC(=O)[C@H](CC(C)C)NC(=O)[C@H](CC(C)C)NC(=O)[C@@H](NC(=O)[C@H](CO)NC(=O)[C@H](Cc1ccc(O)cc1)NC(=O)[C@H](CC(=O)O)NC(=O)[C@H](CO)NC(=O)[C@@H](NC(=O)[C@H](Cc1ccccc1)NC(=O)[C@@H](NC(=O)CNC(=O)[C@H](CCC(=O)O)NC(=O)C(C)(C)NC(=O)[C@@H](N)Cc1ccc(O)cc1)[C@@H](C)O)[C@@H](C)O)[C@@H](C)CC)C(=O)N[C@@H](C)C(=O)N[C@@H](CCC(N)=O)C(=O)NC(C)(C)C(=O)N[C@@H](C)C(=O)N[C@@H](Cc1ccccc1)C(=O)N[C@H](C(=O)N[C@@H](CCCCNC(=O)COCCOCCNC(=O)COCCOCCNC(=O)CC[C@H](NC(=O)CCCCCCCCCCCCCCCCCCC(=O)O)C(=O)O)C(=O)N[C@@H](Cc1ccc(O)cc1)C(=O)N[C@@H](CC(C)C)C(=O)N[C@H](C(=O)N[C@@H](CCC(=O)O)C(=O)NCC(=O)NCC(=O)N1CCC[C@H]1C(=O)N[C@@H](CO)C(=O)N[C@@H](CO)C(=O)NCC(=O)N[C@@H](C)C(=O)N1CCC[C@H]1C(=O)N1CCC[C@H]1C(=O)N1CCC[C@H]1C(=O)N[C@@H](CO)C(N)=O)[C@@H](C)CC)[C@@H](C)CC) [Peptide 34] | 0.0392 |
| Y[Aib]EGTFTSDYSILLDKIAQ[Aib]AFK([AEEA-AEEA-γGlu-C20 diacid])EYLIEGGPSSGAPPPS-NH2 [Peptide 33] | 0.000256 |
| Y[Aib]EGTFTSDYSILLDKIAQ[Aib]AFIEYLIK([AEEA-AEEA-γGlu-C20 diacid])GGPSSGAPPPS-NH2 (N-terminus assumed; SMILES CC[C@H](C)[C@H](NC(=O)[C@H](CCCCN)NC(=O)[C@H](CC(=O)O)NC(=O)[C@H](CC(C)C)NC(=O)[C@H](CC(C)C)NC(=O)[C@@H](NC(=O)[C@H](CO)NC(=O)[C@H](Cc1ccc(O)cc1)NC(=O)[C@H](CC(=O)O)NC(=O)[C@H](CO)NC(=O)[C@@H](NC(=O)[C@H](Cc1ccccc1)NC(=O)[C@@H](NC(=O)CNC(=O)[C@H](CCC(=O)O)NC(=O)C(C)(C)NC(=O)[C@@H](N)Cc1ccc(O)cc1)[C@@H](C)O)[C@@H](C)O)[C@@H](C)CC)C(=O)N[C@@H](C)C(=O)N[C@@H](CCC(N)=O)C(=O)NC(C)(C)C(=O)N[C@@H](C)C(=O)N[C@@H](Cc1ccccc1)C(=O)N[C@H](C(=O)N[C@@H](CCC(=O)O)C(=O)N[C@@H](Cc1ccc(O)cc1)C(=O)N[C@@H](CC(C)C)C(=O)N[C@H](C(=O)N[C@@H](CCCCNC(=O)COCCOCCNC(=O)COCCOCCNC(=O)CC[C@H](NC(=O)CCCCCCCCCCCCCCCCCCC(=O)O)C(=O)O)C(=O)NCC(=O)NCC(=O)N1CCC[C@H]1C(=O)N[C@@H](CO)C(=O)N[C@@H](CO)C(=O)NCC(=O)N[C@@H](C)C(=O)N1CCC[C@H]1C(=O)N1CCC[C@H]1C(=O)N1CCC[C@H]1C(=O)N[C@@H](CO)C(N)=O)[C@@H](C)CC)[C@@H](C)CC) [Peptide 37] | 0.0533 |
| YXEGTXTSDYSIXLDXKAQXEFIXYLIEGGPSSGAPPPS (not fully specified; Aib2; αMeF(2F)6; Aib13; Orn16; K17((2-[2-(2-Amino-ethoxy)-ethoxy]-acetyl)2-(γGlu)-CO-(CH2)16-CO2H); Aib20; D-Glu24; C-terminal NH2) [Peptide 247] | 0.614 |
| YXEGTXTSDYSILLDXKAQXEFIXYLIEGGPSSGAPPPS (not fully specified; Aib2; αMeF(2F)6; Orn16; K17((2-[2-(2-Amino-ethoxy)-ethoxy]-acetyl)2-(γGlu)-CO-(CH2)16-CO2H); Aib20; D-Glu24; C-terminal NH2) [Peptide 248] | 0.8 |
| YXEGTXTSDXSIXLDXKAQXAFIXXLIEGGPSSGAPPPS (Aib2; αMeF(2F)6; 4Pal10; αMeL13; Orn16; K17((2-[2-(2-Amino-ethoxy)-ethoxy]-acetyl)2-(εK)-CO-(CH2)18-CO2H); Aib20; D-Glu24; αMeY25; C-terminal NH2) [Peptide 251] | 1.37 |
| YXEGTXTSDYSIXLDXKAQXEFIXYLIEGGPSSGAPPPS (Aib2; αMeF(2F)6; Aib13; Orn16; K17((2-[2-(2-Amino-ethoxy)-ethoxy]-acetyl)2-(γGlu)-CO-(CH2)18-CO2H); Aib20; D-Glu24; C-terminal NH2) [Peptide 250] | 0.985 |
| YXEGTXTSDYSIXLDXKAQXEFIXYLIEGGPSSGAPPPS (not fully specified; Aib2; αMeF(2F)6; Nle13; Orn16; K17((2-[2-(2-Amino-ethoxy)-ethoxy]-acetyl)2-(γGlu)-CO-(CH2)16-CO2H); Aib20; D-Glu24; C-terminal NH2) [Peptide 249] | 0.778 |
| Y[Aib]EGTFTSDYSILLDKIAQ[Aib]K([AEEA-AEEA-γGlu-C20 diacid])FIEYLIEGGPSSGAPPPS-NH2 (N-terminus assumed; SMILES CC[C@H](C)[C@H](NC(=O)[C@H](CCCCN)NC(=O)[C@H](CC(=O)O)NC(=O)[C@H](CC(C)C)NC(=O)[C@H](CC(C)C)NC(=O)[C@@H](NC(=O)[C@H](CO)NC(=O)[C@H](Cc1ccc(O)cc1)NC(=O)[C@H](CC(=O)O)NC(=O)[C@H](CO)NC(=O)[C@@H](NC(=O)[C@H](Cc1ccccc1)NC(=O)[C@@H](NC(=O)CNC(=O)[C@H](CCC(=O)O)NC(=O)C(C)(C)NC(=O)[C@@H](N)Cc1ccc(O)cc1)[C@@H](C)O)[C@@H](C)O)[C@@H](C)CC)C(=O)N[C@@H](C)C(=O)N[C@@H](CCC(N)=O)C(=O)NC(C)(C)C(=O)N[C@@H](CCCCNC(=O)COCCOCCNC(=O)COCCOCCNC(=O)CC[C@H](NC(=O)CCCCCCCCCCCCCCCCCCC(=O)O)C(=O)O)C(=O)N[C@@H](Cc1ccccc1)C(=O)N[C@H](C(=O)N[C@@H](CCC(=O)O)C(=O)N[C@@H](Cc1ccc(O)cc1)C(=O)N[C@@H](CC(C)C)C(=O)N[C@H](C(=O)N[C@@H](CCC(=O)O)C(=O)NCC(=O)NCC(=O)N1CCC[C@H]1C(=O)N[C@@H](CO)C(=O)N[C@@H](CO)C(=O)NCC(=O)N[C@@H](C)C(=O)N1CCC[C@H]1C(=O)N1CCC[C@H]1C(=O)N1CCC[C@H]1C(=O)N[C@@H](CO)C(N)=O)[C@@H](C)CC)[C@@H](C)CC) [Peptide 32] | 0.136 |
| YXEGTXTSDXSIXLDXKAQXEFIXXLIEGGPSSG (Aib2; αMeF(2F)6; 4Pal10; αMeL13; Orn16; K17((2-[2-(2-Amino-ethoxy)-ethoxy]-acetyl)2-(γGlu)-CO-(CH2)16-CO2H); Aib20; D-Glu24; αMeY25; C-terminal NH2) [Peptide 264] | 3.19 |
